Laboratory results from publication PMC11407943, “Cdc14 phosphatases use an intramolecular pseudosubstrate motif to stimulate and regulate catalysis” (The Journal of Biological Chemistry, 2024).

Test system: T1, Cc1cc(=O)oc2c(F)c(OP(=O)(O)O)c(F)cc12
T1 construct: codons 1-411; N-terminal GST; expressed in E. coli
Type: biochemical
Conditions: pH 7.5; 30.0 °C
From the text: Enzym e kcat (sec-1) KM (µM)

hCdc14B^3A (Homo sapiens; K435A/L431A/R432A)
Km: 1.68 µM
